Results from US8653242B2, “Therapeutic antibodies against flagellated Pseudomonas aeruginosa” (priority 2010, dated 2014).

B1: LST-004 (antibody, V domains shown)
VH: MNFGLSLVFLVLILKGVQCEVMLVESGGGLVKPGGSLKLSCAASGFTFSTFTMSWVRQTPEKRLECVATINGGGGNTYYPDSVKGRFTISRDNAKNNLYLQMSSLRSEDTAFYFCSRLYGIYAMDYWGQGTSVTVSS
VL: MKSHTQVFVYMLLWLSGVEGDIVMTQSHIFMSTSVGDRVSITCKASQDVGSAVAWYQQKPGQSPKVLIYWTSTRHTGVPDRFAGSGSGTEFTLTISNVQSEDLADYFCQQYSSYPLTFGAGTKLELKR
modifications: human IgG1 constant domains lacking entries
B2: LST-003 (antibody, V domains shown)
VH: MMVLSLLYLLTAIPGILSDVQLQESGPGLVKPSQSLSLPCSVTGYSITSGYYWNWIRQFPGNKLEWMGYIRYDGNNNYNPSLKNRISITHDTSKNQFFLKLNYVTTEDTATYYCARGLQFYFDSWGQGTTLTVSS
VL: MVLILLLLWVSGTCGDIVMSQSPSSLAVSGGEKVTMSCKSSQSLLNGSYQKHTLAWYQQKPGQSPKLLIYWASTRESGVPDRFTGSGSGTDFTLTISSVKAEDLAVYYCQQYYSYPWTFGGGTKLEIKR
modifications: human IgG1 constant domains lacking entries

What was measured:
[1] = tested on: mixed PA27853 and Ka02 bacteria; assay: ELISA on mixed fixed bacteria; assay type: binding, P. aeruginosa; details: 1 nM mAb; wells coated with half the amount of each strain
Method: (§1) From a single fresh bacterial colony, PA strains 27853 (harboring flagellin type A) or Ka02 (harboring flagellin type B) were grown overnight in 5 ml LB at 37° C. Thereafter, bacterial cultures were centrifuged at 1500 g for 30 min and following removal of the clear supernatant, pellets were washed twice with 20 ml PBS with intervening centrifugation. The final pellet was resuspended in a volume of PBS (˜10 ml) and adjusted to generate an OD600 of ˜0.2 and maintained on ice prior to coating on ELISA plates which were prepared as follows: to the wells of flat-bottomed ELISA plates (Nunc, cat #442404), 50 μl poly-L-lysine (PLL, Sigma Cat # P-1524) of a 1 μg/ml solution was added and plates were incubated for 30 min at room temperature. Thereafter, non-adsorbed PLL was removed. Fifty μl of the appropriate bacterial suspensions from the different strains at 0.2 OD600 nm were added to the PLL-coated ELISA plates. In some wells, a “mixed-bacterial population” was added. To that end, 25 μl of PA 27853 and 25 μl of Ka02 bacterial suspensions were added to the same wells. […]
ELISA plates containing the fixed P. aeruginosa bacteria, were blocked by adding 200 μl PBS-10% FBS for 60 min at room temperature. […] Thereafter, signal was quenched with 50 μA 10% H2SO4 and plates read at 450 nm in a Microtiter plate reader (Anthos MultiRead 400). […]

[2] = tested on: PA27853 (flagellin type A); assay: ELISA on formaldehyde-fixed PA27853; assay type: binding, P. aeruginosa; details: fixed whole bacteria ELISA, 1 nM mAb
Method: as §1
(§2) ELISA plates containing the fixed P. aeruginosa bacteria, were blocked by adding 200 μl PBS-10% FBS for 60 min at room temperature. […] Thereafter, signal was quenched with 50 μA 10% H2SO4 and plates read at 450 nm in a Microtiter plate reader (Anthos MultiRead 400).

[3] = molecular target: P. aeruginosa flagellin type B (Pseudomonas aeruginosa, UniProt P72151); assay: ELISA of LST-009 on recombinant flagellin type B; assay type: binding; details: 250 ng/well antigen
Chain of P. aeruginosa flagellin type B (P72151 whole entry): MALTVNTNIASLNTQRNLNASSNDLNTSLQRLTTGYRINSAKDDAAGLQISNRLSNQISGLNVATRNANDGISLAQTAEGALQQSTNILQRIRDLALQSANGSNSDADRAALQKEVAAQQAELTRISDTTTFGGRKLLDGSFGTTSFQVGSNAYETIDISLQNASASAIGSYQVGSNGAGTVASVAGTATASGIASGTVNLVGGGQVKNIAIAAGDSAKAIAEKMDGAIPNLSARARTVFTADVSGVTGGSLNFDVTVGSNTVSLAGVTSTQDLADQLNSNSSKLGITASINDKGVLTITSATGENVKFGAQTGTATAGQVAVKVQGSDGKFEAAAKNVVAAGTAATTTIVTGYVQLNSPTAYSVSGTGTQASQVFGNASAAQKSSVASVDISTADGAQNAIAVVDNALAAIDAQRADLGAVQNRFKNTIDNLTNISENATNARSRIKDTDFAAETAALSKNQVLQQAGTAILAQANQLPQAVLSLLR
Method: (§3) Two hundred and fifty ng (250 ng) of P. aeruginosa flagellin type A or B (50 μl from 5 μg/ml) were dispensed into each well of ELISA plates (Nunc, cat #442404) and coating allowed to proceed for 2 hours at room temperature with gentle shaking. Plates were then blocked with 200 μl PBS-10% fetal bovine serum (FBS) overnight at 4° C.
(§4) To that end, following three washes with PBS-0.05% Tween-20, 50 μl of a goat anti-human IgG (Fc)-HRP (Cat # A80-104P; Bethyl, Tex., USA) was added at a dilution of 1:10,000 in PBS-10% FBS with incubation allowed to proceed for 60 min at room temperature. Following 3 separate washes with PBS-Tween-20 (0.05%) and gentle tapping of plates on paper towels to remove final traces of wash buffer, 50 μl TMB/E substrate solution (Cat #ES001-500 ml; Millipore) was added for 15 min at room temperature. Thereafter, signal was quenched with 50 μl 10% H2SO4 and plates read at 450 nm in a Microtiter plate reader (Anthos MultiRead 400).

[4] = molecular target: T1, flagellin type B strains (PA21 and PA01) (Pseudomonas aeruginosa, UniProt P72151); assay: Western blot of P. aeruginosa lysates, flagellin type B strains; assay type: binding; details: mAb 10 μg/ml
T1 construct: a panel of blotted P. aeruginosa lysates of type A or B flagellin; endogenous in cells; host or cells: P. aeruginosa strains PA21 (MDR isolate) and PA01 (laboratory strain)
T1 sequence (P72151 whole entry): as above
Method: (§5) The binding specificity of the chimeric LST-003 mAb was assessed in a western blot experiment as compared to the parental mouse LST-001 mAb. Two identical, yet separate nitrocellulose membranes containing a panel of blotted P. aeruginosa lysates of type A or B flagellin following electrophoresis were hybridized with either mouse LST-001 (FIG. 5A) or chimeric LST-003 (FIG. 5B) mAbs at identical final concentrations (10 μg/ml) with the ensuing detecting secondary peroxidase-conjugated antibodies being anti-mouse Fc or anti-human Fc respectively. Laboratory strains PAK (type A flagellin) or PA01 (type B flagellin) were included as appropriate controls whereas other strains represented multi-drug resistant (MDR) P. aeruginosa strains. […] FIG. 6 also depicts binding of LST-001, LST-002 and LST-003 to immobilized, whole P. aeruginosa as measured in an ELISA and confirms the western blot findings. See below in Example 7 for the ELISA protocol.

[5] = tested on: flagellin type A strains (PA141, PA49, PA1, PA409 and PAK); assay: Western blot of P. aeruginosa lysates, flagellin type A strains; assay type: binding; details: mAb 10 μg/ml
Method: as §5

[6] = molecular target: P. aeruginosa flagellin type A (Pseudomonas aeruginosa, UniProt P21184); assay: ELISA of LST-009 on recombinant flagellin type A; assay type: binding; details: 250 ng/well antigen
Chain of P. aeruginosa flagellin type A (P21184 whole entry): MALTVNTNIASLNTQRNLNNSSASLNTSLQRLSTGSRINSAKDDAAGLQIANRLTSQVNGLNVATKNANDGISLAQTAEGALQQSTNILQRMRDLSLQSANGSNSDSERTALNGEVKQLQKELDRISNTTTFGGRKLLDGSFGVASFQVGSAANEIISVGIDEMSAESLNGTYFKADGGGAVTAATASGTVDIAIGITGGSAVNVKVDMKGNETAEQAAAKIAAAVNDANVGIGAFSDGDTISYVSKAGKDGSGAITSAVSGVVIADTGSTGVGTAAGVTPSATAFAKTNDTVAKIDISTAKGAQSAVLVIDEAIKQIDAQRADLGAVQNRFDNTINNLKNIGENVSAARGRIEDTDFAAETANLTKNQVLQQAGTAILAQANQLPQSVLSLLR
Method: as §3, §4

Ka02 (flagellin type B) = assay: ELISA on formaldehyde-fixed Ka02; assay type: binding, P. aeruginosa; details: fixed whole bacteria ELISA, 1 nM mAb
Method: as §1, §2

Molecule | OD as compared to FIG. 16 (full amount of bacteria) [1] | binding to PA27853 [2] | EC50 towards P. aeruginosa flagellin type B [3] | immunoblot reactivity to flagellin type B strains [4] | immunoblot reactivity to flagellin type A strains [5] | EC50 towards P. aeruginosa flagellin type A [6] | binding to Ka02 (Ka02 (flagellin type B))
B1 | approximately 50% | minimal signal | approximately 300 ng/ml | – | – | – | –
B2 | approximately 50% | – | – | not flagellin type B | stronger binding | approximately 65 ng/ml | failed to bind Ka02
